# Results: patent US20210340208A1 (ANWITA BIOSCIENCES, published 2021)
# Residue numbers refer to the chain shown, from its start. In names and notes the source's numbering stands.
# B1: hIL-2-anti-HSA A47 (ligand)
# chain: APTSSSTKKTQLQLEHLLLDLQMILNGINNYENPCLTRMLTFKFYMPKKATELKHLQCLEEELKPLEEVLNCAQSKNFHLRPRDLISNINVIVLELKGSETTFMCEYADETATIVEFLNRWITFSQSIISTLTGSGGSGGSGGSGEVQLVESGGGLVQPGGSLRLSCAASGSTWSINTLAWYRQAPGKQRDLVARISSGGSTYYADSVKGRFTISRDNSKNTLYLQMNSLRAEDTAVYYCYAQSTWYPPSWGQGTLVTVSS
# notes: fused to anti-HSA VHH; also called hIL-2 mutein (K32E, K35C, L72C, C125S)
# B2: hIL-2-anti-HSA A36 (ligand)
# chain: B1 chain with C35K, R38A, C72L
# notes: fused to anti-HSA VHH; also called IL2 mutein (K32E, R38A, C125S)
# B3: hIL-2-anti-HSA A2 (ligand)
# chain: B1 chain with E32K, C35K, R38N, L40T, C72L
# modifications: glycosylated IL-2 (site and glycan not stated for the tested protein)
# notes: fused to anti-HSA VHH; also called hIL-2 mutein (R38N, L40T, C125S); glycosylated IL-2
# B4: hIL-2-anti-HSA A49 (ligand)
# chain: B1 chain with C35K, F42C, V69C, C72L
# notes: fused to anti-HSA VHH; also called hIL-2 mutein (K32E, F42C, V69C, C125S); IL-2 with an additional disulfide bond
# B5: hIL-2-anti-HSA A72 (ligand)
# chain: B1 chain with C35K, F42C, V69C, C72L, E95N
# notes: fused to anti-HSA VHH; also called hIL-2 mutein (K32E, F42C, V69C, E95N, C125S)
# B6: hIL-2-anti-HSA A61 (ligand)
# chain: B1 chain with T3A, H16N, E32K, C35K, R38N, L40T, F42A, C72L
# notes: fused to anti-HSA VHH; also called hIL-2 mutein (T3A, H16N, R38N, L40T, F42A, C125S)
# B7: hIL-2-anti-HSA A63 (ligand)
# chain: B1 chain with T3A, E32K, C35K, R38N, L40T, F42A, C72L, V91I
# notes: fused to anti-HSA VHH; also called hIL-2 mutein (T3A, R38N, L40T, F42A, V91I, C125S)
# B8: hIL-2-anti-HSA A71 (ligand)
# chain: B1 chain with C35K, F42C, V69C, C72L, I92L
# notes: fused to anti-HSA VHH; also called hIL-2 mutein (K32E, F42C, V69C, I92L, C125S)
# B9: hIL-2-anti-HSA A65 (ligand)
# chain: B1 chain with Q13N, C35K, F42C, V69C, C72L
# notes: fused to anti-HSA VHH; also called hIL-2 mutein (Q13N, K32E, F42C, V69C, C125S)
# B10: hIL-2-anti-HSA A69 (ligand)
# chain: B1 chain with C35K, F42C, V69C, C72L, S87D
# notes: fused to anti-HSA VHH; also called hIL-2 mutein (K32E, F42C, V69C, S87D, C125S)
# B11: hIL-2-anti-HSA A60 (ligand)
# chain: B1 chain with T3A, E15V, E32K, C35K, R38N, L40T, F42A, C72L
# notes: fused to anti-HSA VHH; also called hIL-2 mutein (T3A, E15V, R38N, L40T, F42A, C125S)
# B12: hIL-2-anti-HSA A67 (ligand)
# chain: B1 chain with C35K, F42C, V69C, C72L, D84T
# notes: fused to anti-HSA VHH; also called hIL-2 mutein (K32E, F42C, V69C, D84T, C125S)
# B13: hIL-2-anti-HSA A59 (ligand)
# chain: B1 chain with T3A, Q13E, E32K, C35K, R38N, L40T, F42A, C72L
# notes: fused to anti-HSA VHH; also called hIL-2 mutein (T3A, Q13E, R38N, L40T, F42A, C125S)
# B14: hIL-2-anti-HSA A64 (ligand)
# chain: B1 chain with T3A, E32K, C35K, R38N, L40T, F42A, C72L, E95N
# notes: fused to anti-HSA VHH; also called hIL-2 mutein (T3A, R38N, L40T, F42A, E95N, C125S)
# B15: hIL-2-anti-HSA A66 (ligand)
# chain: B1 chain with L19S, C35K, F42C, V69C, C72L
# notes: fused to anti-HSA VHH; also called hIL-2 mutein (L19S, K32E, F42C, V69C, C125S)
# B16: hIL-2-anti-HSA A68 (ligand)
# chain: B1 chain with C35K, F42C, V69C, C72L, S87E
# notes: fused to anti-HSA VHH; also called hIL-2 mutein (K32E, F42C, V69C, S87E, C125S)
# B17: hIL-2-anti-HSA A70 (ligand)
# chain: B1 chain with C35K, F42C, V69C, C72L, V91I, I92L
# notes: fused to anti-HSA VHH; also called hIL-2 mutein (K32E, F42C, V69C, V91I, I92L, C125S)
# B18: hIL-2-anti-HSA A73 (ligand)
# chain: B1 chain with C35K, F42C, V69C, C72L, E95Q
# notes: fused to anti-HSA VHH; also called hIL-2 mutein (K32E, F42C, V69C, E95Q, C125S)
# B19: hIL-2-anti-HSA A62 (ligand)
# chain: B1 chain with T3A, M23K, E32K, C35K, R38N, L40T, F42A, C72L
# notes: fused to anti-HSA VHH; also called hIL-2 mutein (T3A, M23K, R38N, L40T, F42A, C125S)
# B20: hIL-2-anti-HSA A55 (ligand)
# chain: APTSSSTKKTQLQLEHLLLDLQMILNGIQSMEIDATTFKFYMPKKATELKHLQCLEEELKPLEEVLNLAQSKNFHLRPRDLISNINVIVLELKGSETTFMCEYADETATIVEFLNRWITFSQSIISTLTGSGGSGGSGGSGEVQLVESGGGLVQPGGSLRLSCAASGSTWSINTLAWYRQAPGKQRDLVARISSGGSTYYADSVKGRFTISRDNSKNTLYLQMNSLRAEDTAVYYCYAQSTWYPPSWGQGTLVTVSS
# notes: fused to anti-HSA VHH; also called IL-2-IL-15 chimera 2
# B21: hIL-2-anti-HSA A54 (ligand)
# chain: APTSSSTKKTQLQLEHLLLDLQMILNGINNYENPKLTDATLYMPKKATELKHLQCLEEELKPLEEVLNLAQSKNFHLRPRDLISNINVIVLELKGSETTFMCEYADETATIVEFLNRWITFSQSIISTLTGSGGSGGSGGSGEVQLVESGGGLVQPGGSLRLSCAASGSTWSINTLAWYRQAPGKQRDLVARISSGGSTYYADSVKGRFTISRDNSKNTLYLQMNSLRAEDTAVYYCYAQSTWYPPSWGQGTLVTVSS
# notes: fused to anti-HSA VHH; also called IL-2-IL-15 chimera 1
# B22: hIL-2-anti-HSA A56 (ligand)
# chain: APTSSSTKKTQLQLEHLLLDLQMILNGIQSMEIDATKFYMPKKATELKHLQCLEEELKPLEEVLNLAQSKNFHLRPRDLISNINVIVLELKGSETTFMCEYADETATIVEFLNRWITFSQSIISTLTGSGGSGGSGGSGEVQLVESGGGLVQPGGSLRLSCAASGSTWSINTLAWYRQAPGKQRDLVARISSGGSTYYADSVKGRFTISRDNSKNTLYLQMNSLRAEDTAVYYCYAQSTWYPPSWGQGTLVTVSS
# notes: fused to anti-HSA VHH; also called IL-2-IL-15 chimera 3
# B23: hIL-2-anti-HSA A45 (ligand)
# chain: B1 chain with C35K, R38E, F42K, C72L
# notes: fused to anti-HSA VHH; also called IL2 mutein (K32E, R38E, F42K, C125S)
# B24: hIL-2-anti-HSA A50 (ligand)
# chain: B1 chain with C35K, Y45C, E62C, C72L
# notes: fused to anti-HSA VHH; also called hIL-2 mutein (K32E, Y45C, E62C, C125S)
# B25: hIL-2-anti-HSA A53 (ligand)
# chain: B1 chain with E32K, C35K, F42C, V69C, C72L, K76E
# notes: fused to anti-HSA VHH; also called hIL-2 mutein (F42C, V69C, K76E, C125S)
# B26: hIL-2-anti-HSA A52 (ligand)
# chain: B1 chain with E32K, C35K, F42C, V69C, C72L
# notes: fused to anti-HSA VHH; also called hIL-2 mutein (F42C, V69C, C125S)
# B27: hIL-2-anti-HSA A46 (ligand)
# chain: B1 chain with C35K, R38G, F42K, C72L
# notes: fused to anti-HSA VHH; also called IL2 mutein (K32E, R38G, F42K, C125S)
# B28: hIL-2-anti-HSA A44 (ligand)
# chain: B1 chain with C35K, R38A, F42K, C72L
# notes: fused to anti-HSA VHH; also called IL2 mutein (K32E, R38A, F42K, C125S)
# B29: hIL-2-anti-HSA A40 (ligand)
# chain: B1 chain with C35K, R38G, F42A, C72L
# notes: fused to anti-HSA VHH; also called IL2 mutein (K32E, R38G, F42A, C125S)
# B30: hIL-2-anti-HSA A38 (ligand)
# chain: B1 chain with C35K, R38A, F42A, C72L
# notes: fused to anti-HSA VHH; also called IL2 mutein (K32E, R38A, F42A, C125S)
# B31: hIL-2-anti-HSA A42 (ligand)
# chain: B1 chain with C35K, R38E, F42G, C72L
# notes: fused to anti-HSA VHH; also called IL2 mutein (K32E, R38E, F42G, C125S)
# B32: hIL-2-anti-HSA A48 (ligand)
# chain: B1 chain with C35K, R38C
# notes: fused to anti-HSA VHH; also called hIL-2 mutein (K32E, R38C, L72C, C125S)
# B33: hIL-2-anti-HSA A39 (ligand)
# chain: B1 chain with C35K, R38E, F42A, C72L
# notes: fused to anti-HSA VHH; also called IL2 mutein (K32E, R38E, F42A, C125S)
# Molecular target: T1, IL-2Rα-Fc fusion protein (human, UniProt P01589 22-240)
# T1 construct: also called human IL-2Rα (CD25); CD25; not shown: Fc part and any linker are not described; captured on an anti-human IgG Fc sensor
# T1 sequence: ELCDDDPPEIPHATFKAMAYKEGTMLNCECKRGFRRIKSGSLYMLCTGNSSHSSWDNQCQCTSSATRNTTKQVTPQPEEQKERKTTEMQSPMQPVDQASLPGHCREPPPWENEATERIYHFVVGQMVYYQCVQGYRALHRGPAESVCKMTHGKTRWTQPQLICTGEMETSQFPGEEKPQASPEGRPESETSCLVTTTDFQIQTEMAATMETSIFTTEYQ
# Experiment: BLI (Octet RED96), IL-2Rα-Fc on AHC biosensor, global fit
# Protocol: (§1) OCTET® RED96 was used to characterize the interactions of a wild-type hIL-2 and hIL-2 muteins with a human IL-2Rα (CD25). Briefly, an IL-2Rα-Fc fusion protein was loaded onto an anti-human IgG Fc capture (AHC) biosensor. The biosensor was then dipped into a solution containing a wild-type hIL-2 (WT IL-2) or an IL-2 mutein at various concentrations. Primary experimental data was analyzed with global fitting to determine a binding affinity (Kd).
row,Binder,Kd
1,B1,> 0.015 µM
2,B2,0.05 µM

# Molecular target: T2, human CD122-Fc (AbroBio) (human, UniProt P14784 27-239)
# T2 construct: also called IL-2Rβ; not shown: Fc part and any linker of the bought protein are not described; captured on an anti-human Fc sensor
# T2 sequence: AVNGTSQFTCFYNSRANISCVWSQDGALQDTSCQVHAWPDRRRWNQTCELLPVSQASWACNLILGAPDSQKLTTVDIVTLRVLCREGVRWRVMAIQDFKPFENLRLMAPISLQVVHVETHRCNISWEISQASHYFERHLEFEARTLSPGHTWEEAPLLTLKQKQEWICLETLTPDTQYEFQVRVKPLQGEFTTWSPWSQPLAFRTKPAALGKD
# Experiment: BLI (Octet RED96), CD122-Fc on AHC sensor, 400 nM hIL-2 polypeptide
# Protocol: OCTET® RED96 was used to characterize the interactions of a human CD122-Fc (AbroBio) with a wild-type hIL-2 and hIL-2 muteins. Briefly, an anti-human Fc sensor (AHC) loaded with the human CD122 was dip into 400 nM of an hIL-2 polypeptide. The binding signaling of fusion protein A1 was normalized to 1.
row,Binder,CD122 Binding Response (A1 normalized to 1)
1,B3,0.68
2,B4,1.04
3,B5,0.39
4,B6,0.17
5,B7,0.35
6,B8,1.44
7,B9,0.5
8,B10,1.93
9,B11,0.14
10,B12,0.3
11,B13,0.55
12,B14,0.22
13,B15,0.65
14,B16,1.72
15,B17,1.31
16,B18,0.38
17,B19,0.29

# Molecular target: T1, IL-2Rα-Fc fusion protein
# Experiment: BLI (Octet RED96), IL-2Rα-Fc on AHC biosensor
# Protocol: as §1
row,Binder,binding result
1,B20,no binding
2,B21,no binding
3,B22,no binding
4,B3,no binding
5,B4,no binding
6,B23,no binding
7,B24,no binding
8,B25,no binding
9,B26,no binding
10,B27,no binding
11,B28,no binding
12,B29,no binding
13,B30,no binding
14,B31,no binding
15,B32,no binding
16,B33,no binding
